# Laboratory results reported in patent US20250051731A1, “COMPOSITIONS AND METHODS FOR ESTABLISHMENT OF BOVINE-INDUCED PLURIPOTENT STEM CELLS” (University of Connecticut, priority 2021, published 2025).
# B1: KDM4A: human lysine-specific demethylase 4A overexpressed in bMSCs from pMXs retroviral vector (protein, UniProt O75164 2-1064, looked up)
# Lysine-specific demethylase 4A: ASESETLNPSARIMTFYPTMEEFRNFSRYIAYIESQGAHRAGLAKVVPPKEWKPRASYDDIDDLVIPAPIQQLVTGQSGLFTQYNIQKKAMTVREFRKIANSDKYCTPRYSEFEELERKYWKNLTFNPPIYGADVNGTLYEKHVDEWNIGRLRTILDLVEKESGITIEGVNTPYLYFGMWKTSFAWHTEDMDLYSINYLHFGEPKSWYSVPPEHGKRLERLAKGFFPGSAQSCEAFLRHKMTLISPLMLKKYGIPFDKVTQEAGEFMITFPYGYHAGFNHGFNCAESTNFATRRWIEYGKQAVLCSCRKDMVKISMDVFVRKFQPERYKLWKAGKDNTVIDHTLPTPEAAEFLKESELPPRAGNEEECPEEDMEGVEDGEEGDLKTSLAKHRIGTKRHRVCLEIPQEVSQSELFPKEDLSSEQYEMTECPAALAPVRPTHSSVRQVEDGLTFPDYSDSTEVKFEELKNVKLEEEDEEEEQAAAALDLSVNPASVGGRLVFSGSKKKSSSSLGSGSSRDSISSDSETSEPLSCRAQGQTGVLTVHSYAKGDGRVTVGEPCTRKKGSAARSFSERELAEVADEYMFSLEENKKSKGRRQPLSKLPRHHPLVLQECVSDDETSEQLTPEEEAEETEAWAKPLSQLWQNRPPNFEAEKEFNETMAQQAPHCAVCMIFQTYHQVEFGGFNQNCGNASDLAPQKQRTKPLIPEMCFTSTGCSTDINLSTPYLEEDGTSILVSCKKCSVRVHASCYGVPPAKASEDWMCSRCSANALEEDCCLCSLRGGALQRANDDRWVHVSCAVAILEARFVNIAERSPVDVSKIPLPRFKLKCIFCKKRRKRTAGCCVQCSHGRCPTAFHVSCAQAAGVMMQPDDWPFVVFITCFRHKIPNLERAKGALQSITAGQKVISKHKNGRFYQCEVVRLTTETFYEVNFDDGSFSDNLYPEDIVSQDCLQFGPPAEGEVVQVRWTDGQVYGAKFVASHPIQMYQVEFEDGSQLVVKRDDVYTLDEELPKRVKSRLSVASDMRFNEIFTEKEVKQEKKRQRVINSRYREDYIEPALYRAIME
# Columns and labels:
# H3K9me2 = assay: Immunostaining of H3K9me2 in bMSCs; format: cell-based, bovine; details: bMSCs overexpressing human KDM4A vs vector control
# Protocol: (§1) Immunostaining: For immunofluorescence, the cells were first fixed in 4% PFA for 15 min at room temperature. Following fixation, the cells were treated with 0.5% Triton X-100 in PBS for 15 min at room temperature for cell membrane permeabilization. After blocking with goat serum (Cell Signaling Technology, Danvers, MA, USA), the cells were incubated in goat serum containing primary antibodies for 2 h at 37° C., followed by secondary antibodies at room temperature for 1 h. Cells were counter-stained with DAPI and imaged under a Nikon fluorescence microscope. Primary antibodies including rabbit anti-OCT4 (Santa Cruz, CA, USA), rabbit anti-SOX2 (Merck Millipore), and mouse anti-NANOG (Merck Millipore) were used at 1:100 dilution while mouse anti-AFP (1:50; Cloud-clone Corp., TX, USA), rabbit anti-TUJ1 (1:500) and mouse anti-SMA (1:400) (Thermo Fisher Scientific) were diluted variously according to their manufacturer's instructions. Alexa Fluor 488 or 594 conjugated goat anti-rabbit or goat anti-mouse secondary antibody (Cell Signaling Technology) were used in 1:1000 dilution. For cell surface marker staining, the cells in different reprogramming conditions were stained with NL557-conjugated TRA-1-60 (1:100), SSEA-3 (1:50; R&D Systems, Minneapolis, MN, USA) and Alexa Fluor 594 conjugated SSEA-4 (1:100; BioLegend, San Diego, CA, USA) according to the manufacturer's protocol.
# H3K9me3 = assay: Immunostaining of H3K9me3 in bMSCs; format: cell-based, bovine; details: bMSCs overexpressing human KDM4A vs retroviral vector control
# Protocol: as §1
molecule,measurement,setting,value
B1,H3K9me2 by immunostaining,H3K9me2,not
same,H3K9me3 by immunostaining,H3K9me3,reduced
